Test results reported in patent publication US12016935B2, “Methods for detecting CCR2 receptors” (Washington University, priority 2016, dated 2024).
Each block holds one compound with its values, some of them ahead of it. Where no end group is shown, it is not given here. [ ]: non-standard residue; d: D form.

Experiments:
[1] = Toxicity study in mice (serum chemistries, histology); type: in vivo, mouse; conditions: i.v. 110 μg, 500-fold the estimated human imaging dose; evaluated 24 h later
Experimental: Toxicity studies were performed by S. Greco, DVM (Dept. of Comparative Med., Washington Univ.).

[2] = target: T1, CCR2 (Homo sapiens, UniProt P41597); assay: Autoradiography on human lung tissue sections; type: binding; parameters: Fixed human lung tissue sections; from tissue; host or cells: human lung (COPD explants and donor lungs), fixed paraffin sections; conditions: lung tissue from subjects with COPD
Experimental: Fixed human lung tissue sections that were deparaffinized and hydrated in PBS were incubated with ^64Cu-DOTA-ECL1i for 5 min (n=4 donor, n=6 COPD). […] Slides were washed 30 times with water then placed in an instant imager (Packard, Meriden, CT) for 30 minutes.
Target sequence in this assay (P41597 whole entry): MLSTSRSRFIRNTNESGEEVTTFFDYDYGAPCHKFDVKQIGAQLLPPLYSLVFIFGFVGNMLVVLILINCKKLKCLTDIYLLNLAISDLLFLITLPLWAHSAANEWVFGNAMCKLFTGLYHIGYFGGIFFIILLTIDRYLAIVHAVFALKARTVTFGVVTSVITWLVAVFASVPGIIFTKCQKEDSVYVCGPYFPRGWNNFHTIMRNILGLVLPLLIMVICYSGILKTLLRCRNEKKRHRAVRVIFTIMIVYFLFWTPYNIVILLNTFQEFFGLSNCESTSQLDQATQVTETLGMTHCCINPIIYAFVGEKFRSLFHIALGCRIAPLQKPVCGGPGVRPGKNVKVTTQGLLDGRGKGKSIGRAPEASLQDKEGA

[3] = mouse, in vivo
Experimental: After euthanasia, 1 h post-radiotracer injection, organs of interest were collected, weighed and assayed by gamma counter (Beckman, Brea, CA) as described (23). Standards were prepared and measured in parallel to calculate the percentage of the injected dose per gram of tissue (% ID/g).

[4] = target: T2, CCR2 (Mus musculus, UniProt P51683)
T2 sequence (P51683 whole entry): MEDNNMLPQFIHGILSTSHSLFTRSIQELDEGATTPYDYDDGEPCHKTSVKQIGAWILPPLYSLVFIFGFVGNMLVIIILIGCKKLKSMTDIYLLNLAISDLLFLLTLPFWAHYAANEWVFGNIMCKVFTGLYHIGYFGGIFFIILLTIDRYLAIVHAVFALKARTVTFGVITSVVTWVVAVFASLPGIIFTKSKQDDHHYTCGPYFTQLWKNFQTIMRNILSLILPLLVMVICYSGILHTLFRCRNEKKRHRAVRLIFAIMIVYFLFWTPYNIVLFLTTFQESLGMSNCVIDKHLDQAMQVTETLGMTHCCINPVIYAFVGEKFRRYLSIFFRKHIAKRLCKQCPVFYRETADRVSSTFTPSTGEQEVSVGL
Experimental: Instead of a dynamic scan, a static scan was performed at 1, 4 and 24 hours after injection. The PET images were reconstructed with the maximum a posteriori algorithm and analyzed by Inveon Research Workplace. The organ uptake was calculated as percent injected dose per gram (% ID/g) of tissue in three-dimensional regions of interest without the correction for partial volume effect (14).

[5] = mouse, in vivo; remark: listed apart in the source
Experimental: C57BL/6 mice were used for the biodistribution studies. About 10 μCi of ^64Cu-DOTA-ECL1i in 100 μL saline (APP pharmaceuticals, Schaumburg, IL) were injected via the tail vein. The mice were anesthetized with inhaled isoflurane and re-anesthetized before euthanasia by cervical dislocation at each time point (1 hour after injection, n=4/group). Organs of interest were collected, weighed and counted in a Beckman 8000 gamma counter (Beckman, Fullterton, CA).

[6] = target: T1, CCR2; parameters: expressed in transfected cells; host or cells: HEK293; conditions: compared to CCL2 ligand in vitro; cited from earlier work
Target sequence in this assay (P41597 whole entry, species assumed): as the sequence (P41597 whole entry) above

[7] = target: T3, human CCR5 (Homo sapiens, UniProt P51681); assay: Migration of cells expressing human CCR5; type: cell-based
T3 construct: expressed in transfected cells
T3 sequence (P51681 whole entry): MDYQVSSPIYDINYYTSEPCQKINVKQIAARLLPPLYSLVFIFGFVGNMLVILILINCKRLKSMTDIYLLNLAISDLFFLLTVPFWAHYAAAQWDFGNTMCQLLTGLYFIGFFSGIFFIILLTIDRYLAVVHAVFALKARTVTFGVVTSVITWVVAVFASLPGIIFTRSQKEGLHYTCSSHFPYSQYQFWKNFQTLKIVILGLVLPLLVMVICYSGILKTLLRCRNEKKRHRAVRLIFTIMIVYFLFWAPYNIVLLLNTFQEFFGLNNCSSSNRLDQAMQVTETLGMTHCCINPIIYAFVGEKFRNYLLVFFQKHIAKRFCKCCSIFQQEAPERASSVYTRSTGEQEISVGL

[8] = target: T4, human CCR1 (Homo sapiens, UniProt P32246); assay: Migration of cells expressing human CCR1; type: cell-based
T4 construct: expressed in transfected cells
T4 sequence (P32246 1-355): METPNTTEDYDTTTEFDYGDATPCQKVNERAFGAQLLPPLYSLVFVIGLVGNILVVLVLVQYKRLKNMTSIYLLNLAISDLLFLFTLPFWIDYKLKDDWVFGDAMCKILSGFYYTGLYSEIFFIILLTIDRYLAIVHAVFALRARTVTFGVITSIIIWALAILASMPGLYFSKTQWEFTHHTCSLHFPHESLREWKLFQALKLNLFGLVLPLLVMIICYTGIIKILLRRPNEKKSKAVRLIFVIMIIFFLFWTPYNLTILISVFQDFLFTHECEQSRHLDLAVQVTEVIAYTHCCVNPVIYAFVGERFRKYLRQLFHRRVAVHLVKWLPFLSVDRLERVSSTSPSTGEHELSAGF

[9] = tested on: CD45^+ immune cells in COPD lung; assay: Flow cytometry of cells digested from human COPD lung; type: cell-based
Experimental: There were three CCR2 phenotypes (high, intermediate, normal), with implications for future therapies. […] Our tissue bank also includes cells digested from lung for flow cytometry studies. […] We obtain approximately 6-8 explanted lungs per year from COPD subjects. We propose to also examine lung tissue incubated with ECL1i-647 and cells specific antibodies using two-photon microscopy to localize ECL1i.

[10] = target: T1, CCR2; assay: Binding of fluorescently-labeled CCL1 to CCR2-expressing HEK293 cells; parameters: expressed in transfected cells; host or cells: HEK293
Source text: (§1) CCR2^+ cells migrate in response to CCL2.
Target sequence in this assay (P41597 whole entry, species assumed): as the sequence (P41597 whole entry) above

[11] = target: T5, human CX3CR1 (Homo sapiens, UniProt P49238); assay: Migration of cells expressing human CX3CR1; type: cell-based
T5 construct: expressed in transfected cells
T5 sequence (P49238 1-355): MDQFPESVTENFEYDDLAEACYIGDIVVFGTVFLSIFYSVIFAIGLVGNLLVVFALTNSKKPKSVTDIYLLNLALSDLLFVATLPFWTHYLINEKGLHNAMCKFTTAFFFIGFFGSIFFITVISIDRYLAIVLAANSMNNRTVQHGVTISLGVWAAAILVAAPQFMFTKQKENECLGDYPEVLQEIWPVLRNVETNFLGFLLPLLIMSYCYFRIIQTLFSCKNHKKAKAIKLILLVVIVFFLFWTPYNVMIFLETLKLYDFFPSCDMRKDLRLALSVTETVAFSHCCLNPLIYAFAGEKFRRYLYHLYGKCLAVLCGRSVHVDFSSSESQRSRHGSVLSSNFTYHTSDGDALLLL

[12] = target: T6, human CCR2 (hCCR2) (Homo sapiens, UniProt P41597); assay: CCL2-induced chemotaxis in CHO cells that stably express human CCR2; type: cell-based
T6 construct: expressed in transfected cells; host or cells: CHO
T6 sequence (P41597 whole entry): as the sequence (P41597 whole entry) above
Source text: as §1

[13] = tested on: CCR2^+ inflammatory monocytes; assay: CCL2-mediated chemotaxis of monocytes; type: cell-based
Source text: as §1

[14] = target: T2, CCR2; assay: PET/CT imaging in LPS mouse lung injury model; type: in vivo; parameters: tissue The Jackson Laboratories; host or cells: C57BL/6 mice, lung and aortic arch in vivo (CCR2+ monocytes/macrophages); conditions: PET
Source text: The Institutional Animal Care and Use Committee approved these studies. Wild type (n=77) and CCR2-deficient (CCR2^−/−, n=4) mice (C57BL6/J strain) were 8 to 12 weeks of age, of both sexes and approximately 25 g in weight. Mice were used for radiotracer stability studies (n=3) and lung injury studies that included: immunostaining for CCR2 (n=6), in vivo immune cell peptide binding (n=18), lung water weight measurements (n=6), in vivo biodistribution (n=12) and PET/CT imaging (n=36). For the lung injury studies, mice were not treated (naive, n=8), administered intratracheal vehicle control, phosphate buffered saline (PBS, 1 μL/g, n=26) or lipopolysaccharide (LPS, endotoxin, E. coli strain 055:B5, Sigma-Aldrich, St. Louis, MO), at a dose of 2.5 μg/g (n=44), “high” dose, 10 μg/g (n=3), or “low” dose, 0.5 μg/g (n=3) LPS. All CCR2-deficient mice were administered an LPS dose of 2.5 μg/g. Lung water was quantified using wet-to-dry weight ratios in PBS- or intermediate dose LPS-treated mice (n=3/group). Lungs were resected and weighted immediately, then compared to weights obtained after drying at 65° C. for 48 h.
Time-activity curves were calculated from the ROIs from PET images obtained in a subgroup (n=3/group) of the PBS- and LPS-treated mice undergoing imaging at 24 h. […]

[15] = tested on: monocytes (Ly6G^lo, Ly6C^hi); assay: Flow cytometry of lung immune cells binding ECL1i-Dylight 550 in vivo; parameters: species or system mouse; conditions: injected i.v. 24 h post LPS; lungs analyzed one hour later
Experimental: Mice (n=4 PBS, n=5 LPS) delivered intratracheal PBS or LPS, and 24 hours later were injected intravenously with ECL1i labeled with Dylight 550 (100 μg) to determine the type of inflammatory cell binding ECL1i. Other mice were treated in parallel but not given ECL1i-Dylight 550 (n=4 PBS, n=5 LPS). One h post-injection, a single cell suspension was produced from the lungs, immunostained with immune cell markers (TABLE 2) and analyzed by flow cytometry.
Mice delivered intratracheal PBS or LPS were injected intravenously with ECL1i labeled with Dylight 550, as with the radiolabeled probe, to determine the type of inflammatory cell binding ECL1i. […] Cells were suspended in FACS buffer, counted by hemocytometer, and prepared for flow cytometry. […] Counts from 1 to 10×10^4 cells were collected for each sample on a FACSCalibur (Becton Dickinson), dual laser, flow cytometer using CellQuest Pro software (BD Biosciences), and analyzed using FlowJo software (Ashland, OR). The mean fluorescent intensity was determined by calculating the geometric mean of Dylight 550 fluorescence of the cell types identified in ECL1i-Dylight 550-injected mice and subtracting the fluorescent background of the same cell types from similarly treated mice not injected with ECL1i-Dylight 550.

Compound: CC(C)C[C@@H](N)C(=O)NCC(=O)N[C@@H](C(=O)N[C@H](Cc1ccccc1)C(=O)N[C@H](CC(C)C)C(=O)N[C@H](CCCCN)C(=O)N[C@H](CSC1CC(=O)N(CCNC(=O)CN2CCN(CC(=O)O)CCN(CC(=O)O)CCN(CC(=O)O)CC2)C1=O)C(=O)O)[C@H](C)O (single isomer, unassigned) [Cu-DOTA-ECL1i]
toxicity findings [1]: normal serum hepatic and renal chemistries, and histologic examination of lung, liver and kidneys

Compound: CC(C)C[C@@H](N)C(=O)NCC(=O)N[C@@H](C(=O)N[C@H](Cc1ccccc1)C(=O)N[C@H](CC(C)C)C(=O)N[C@H](CCCCN)C(=O)N[C@H](CSC1CC(=O)N(CCNC(=O)CN2CCN(CC(=O)O)CCN(CC(=O)O)CCN(CC(=O)O)CC2)C1=O)C(=O)O)[C@H](C)O (single isomer, unassigned) [^64Cu-DOTA-ECL1i, metal not drawn]
specificity determined by non-radioactive blockade [2]: 54.5% | blood retention, LPS versus PBS treated mice [3]: no difference in blood retention | PET signal in the grafts blocked by competitive receptor blocking ([4]; transplantation into wild type recipients, excess ECL1i): approximately 75% | uptake in the donor lung relative to native lung (biodistribution) [5]: more than twice

inhibition of migration [7]: did not inhibit the migration | inhibition of migration [8]: did not inhibit the migration | effect on binding of fluorescently-labeled CCL1 [10]: did not prevent the binding | inhibition of migration [11]: did not inhibit the migration | induction of migration of CHO-hCCR2 cells ([12]; at concentrations that inhibited CCL2 signaling): did not induce the migration
Compound: DLeu-Gly-DThr-DPhe-DLeu-DLys-DCys ([dL]G[dT][dF][dL][dK][dC]) [ECL1i]
CCR2 binding mode [6]: selectively bind CCR2 in a non-competitive way | binding to human lung cells [9]: bound a population of CD45^+ immune cells | inhibition of CCL2-induced chemotaxis ([12]; concentration-dependent manner): specifically inhibited CCL2-induced chemotaxis | inhibition of CCL2-mediated chemotaxis of monocytes [13]: inhibited CCL2-mediated chemotaxis of CCR2^+ inflammatory monocytes, but not of resident monocytes | activity in lungs after intratracheal lipopolysaccharide relative to saline control group [14]: 3.5 fold

Compound: ECL1i-Dylight 550: Maleimide-modified Dylight 550 conjugated to ECL1i on the cysteine residue ([dL]G[dT][dF][dL][dK][dC](Dylight 550 maleimide))
binding to monocytes (Ly6G^lo, Ly6C^hi) induced by LPS [15]: significant binding

share of accumulation in pulmonary grafts due to CCR2-mediated uptake ([4]; accumulation of ^64CuAuNCs in native lungs set as background): more than 80%
Compound: ^64CuAuNCs-ECL1i: ECL1i-conjugated gold nanoclusters doped with ^64Cu; multivalent targeted nanocluster ([dL]G[dT][dF][dL][dK][dC]; also: joined via TA-PEG-Maleimide to a gold nanocluster doped with 64Cu, attachment site not given here)
retention in the blood relative to monovalent ^64Cu-DOTA-ECL1i [5]: six-fold higher
